This assay concerns the target TOLLIP, recombinant from bacteria, biotinylated (human), Q9H0E2. Briefly: BLI. Particulars: remark: other sources report otherwise.

B1: IRAK1, recombinant from bacteria, P51617 1-712 (enzyme)
chain: MAGGPGPGEPAAPGAQHFLYEVPPWVMCRFYKVMDALEPADWCQFAALIVRDQTELRLCERSGQRTASVLWPWINRNARVADLVHILTHLQLLRARDIITAWHPPAPLPSPGTTAPRPSSIPAPAEAEAWSPRKLPSSASTFLSPAFPGSQTHSGPELGLVPSPASLWPPPPSPAPSSTKPGPESSVSLLQGARPFPFCWPLCEISRGTHNFSEELKIGEGGFGCVYRAVMRNTVYAVKRLKENADLEWTAVKQSFLTEVEQLSRFRHPNIVDFAGYCAQNGFYCLVYGFLPNGSLEDRLHCQTQACPPLSWPQRLDILLGTARAIQFLHQDSPSLIHGDIKSSNVLLDERLTPKLGDFGLARFSRFAGSSPSQSSMVARTQTVRGTLAYLPEEYIKTGRLAVDTDTFSFGVVVLETLAGQRAVKTHGARTKYLKDLVEEEAEEAGVALRSTQSTLQAGLAADAWAAPIAMQIYKKHLDPRPGPCPPELGLGLGQLACCCLHRRAKRRPPMTQVYERLEKLQAVVAGVPGHSEAASCIPPSPQENSYVSSTGRAHSGAAPWQPLAAPSGASAQAAEQLQRGPNQPVESDESLGGLSAALRSWHLTPSCPLDPAPLREAGCPQGDTAGESSWGSGPGSRPTAVEGLALGSSASSSSEPPQIIINPARQKMVQKLALYEDGALDSLQLLSSSSLPGLGLEQDRQGPEESDEFQS
modifications: here or on the partner: biotin (biotinylated TOLLIP; site not told)
As to B1, the dissociation constant (Kd) (in general, the constant that tells how readily two partners part at equilibrium) was determined as 91.5 nM.

(Values after publication PMC10711807.)
